Data taken from patent US9675789B2, “Embeddable micro-needle patch for transdermal drug delivery and method of manufacturing the same” (NATIONAL CHENG KUNG UNIVERSITY, priority 2012, dated 2017).

Test system: IgG antibodies induced by ovalbumin
Experiment: immunity test: IgG antibodies induced by ovalbumin in blood serum, ELISA 450 nm absorbance
Type: in vivo, sprague dawley (SD) rats
Conditions: SD rats, 1 mg ovalbumin at zero and fourteenth day, seventh day
Procedure: In another aspect of the embodiment, sprague dawley (SD) rats having four to six weeks of age are divided into three groups. Immune response is induced at zero day and fourteenth days by respectively encapsulating 1 mg of ovalbumin in the embeddable micro-needle patch for transdermal drug delivery, injecting saline in muscles, and injecting 1 mg of ovalbumin solution in muscles so as to produce correspondingly IgG antibodies, and blood is drawn from venous sinus under collarbones of the rats at zero day, seventh day, fourteenth day and twenty-first day. The drawn blood is detected by ELISA (enzyme-linked immunosorbent assay) to obtain 450 nm absorbance such that the contents of IgG antibodies antibody induced by ovalbumin in blood serum are determined.

B1: ovalbumin (protein, UniProt P01012 2-386, looked up)
Ovalbumin: GSIGAASMEFCFDVFKELKVHHANENIFYCPIAIMSALAMVYLGAKDSTRTQINKVVRFDKLPGFGDSIEAQCGTSVNVHSSLRDILNQITKPNDVYSFSLASRLYAEERYPILPEYLQCVKELYRGGLEPINFQTAADQARELINSWVESQTNGIIRNVLQPSSVDSQTAMVLVNAIVFKGLWEKAFKDEDTQAMPFRVTEQESKPVQMMYQIGLFRVASMASEKMKILELPFASGTMSMLVLLPDEVSGLEQLESIINFEKLTEWTSSNVMEERKIKVYLPRMKMEEKYNLTSVLMAMGITDVFSSSANLSGISSAESLKISQAVHAAHAEINEAGREVVGSAEAGVDAASVSEEFRADHPFLFCIKHIATNAVLFFGRCVSP
notes: 1 mg of ovalbumin solution injected in muscles, conventional muscle injection comparison group
  expression of induced IgG antibodies in blood serum compared with saline control group: can be discovered
